Test results reported in patent US20230374151A1 (GlaxoSmithKline, published 2023).
Values joined by “and” are separate entries in the source; they are usually repeats but may differ in a detail not shown here. Equal values may be shown once.

How the values were obtained:
[1] = target: T1, TnMUC1 peptide (fully glycosylated), biotinylated; experiment: SPR (Biacore T200): biotinylated TnMUC1 peptide batch 65-1 captured on CAP chip, scFv as analyte, 1:1 fit, average
T1 construct: Two batches (36-2 and 65-1) of the same peptide; also called 36-2; 7-36-2
Protocol: (§1) Biotin CAPture Reagent was captured onto the active and reference flow cells for 300 seconds at 2 μl/min. The biotinylated peptides were diluted in BIAcore Running Buffer (as described above) and captured onto the active flow cell only, at a flow rate of 10 μl/min to obtain the capture level calculated in the equation detailed above.
(§2) The humanised anti-TnMUC1 scFv proteins were passed over the reference and active flow cells at 500, 125, 31.25, 7.8, 1.9, 0 nM for binding to TnMUC1 and MUC1 peptides with a 300 second association followed by a 900 seconds dissociation with BIAcore Running Buffer at a flow rate of 30 μl/min.
(§3) BIAcore T200 Evaluation Software v3.0 was used to analyse the data. The data obtained has been fitted to a 1:1 binding model with the Rmax parameter set to local. As this is a capture experiment, a local Rmax parameter would be truly reflective as the protein is recaptured every time and theoretically surface is slightly different at each recapture, possibly producing slightly different capture each time. Kinetic Parameters (KD, kd and kₐ) were calculated for all the humanised anti-TnMUC1 scFv proteins.

[2] = target: T2, STnMUC1 peptide, biotinylated; experiment: SPR (Biacore T200): biotinylated STnMUC1 peptide (35-1) captured on CAP chip, scFv as analyte, 1:1 fit, average
T2 construct: also called STn peptide; 35-1

[3] = target: T1, TnMUC1 peptide (fully glycosylated), …; experiment: SPR (Biacore T200), peptide 36-2 on CAP chip, scFv as analyte, 1:1 fit; average, restated in nM
Protocol: as §1, §2, §3

[4] = target: T1, TnMUC1 peptide (fully glycosylated), …; experiment: SPR (Biacore T200), peptide 36-2 on CAP chip, scFv as analyte, 1:1 fit; average
Protocol: as §1, §2, §3

[5] = target: T3, TnMUC1 peptide 1 (partially glycosylated), biotinylated; experiment: SPR (Biacore T200): biotinylated TnMUC1 peptide 1 (96-1) captured on CAP chip, scFv as analyte, 1:1 fit, average
T3 construct: also called 96-1; 32A
Protocol: as §1, §2, §3

[6] = target: T4, MUC1 peptide (non-glycosylated), biotinylated (N-terminal Biotin-PEG2; C-terminal amide); experiment: SPR (Biacore T200), biotinylated peptide on CAP chip, scFv as analyte
T4 construct: also called 36-4; 7-36-4
T4 peptide: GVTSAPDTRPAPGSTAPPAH

[7] = target: T2, STnMUC1 peptide, biotinylated; experiment: SPR (Biacore T200): biotinylated STnMUC1 peptide (35-1) captured on CAP chip, scFv as analyte
[8] = target: T1, TnMUC1 peptide (fully glycosylated), …; experiment: SPR (Biacore T200), peptide 36-2 on CAP chip, scFv as analyte, 1:1 fit; single run
Protocol: as §1, §2, §3

[9] = target: T4, MUC1 peptide (non-glycosylated), …; experiment: Octet BLI, biotinylated peptide on streptavidin sensors
Protocol: Biotinylated MUC1 peptide (7-36-4) and TnMUC1 peptide (7-36-2) were diluted to 10 μg/ml in Octet Running Buffer (1×PBSF) and loaded onto Octet SA (streptavidin) sensors. The positive control proteins were tested in the Octet assay at a single concentration of 500 nM. All humanised anti-Tn MUC1 scFv expression supernatants were assayed neat.
Data was analysed using the data acquisition software fortéBIO version 8.0.2.5 and the data analysis software fortéBIO version 8.0.2.3.

[10] = target: T2, STnMUC1 peptide, biotinylated; experiment: SPR (Biacore T200), STnMUC1 peptide on CAP chip, scFv as analyte
Protocol: (§4) The CAP chip (from the Biotin CAPture kit) was docked into BIAcore T200 instrument to hydrate overnight, as per manufacturer instructions. When the chip is docked (for the first time or after storage), the surface of the sensor chip needs to be conditioned with 3×1 minute injections of Regeneration Solution (from the Biotin CAPture kit). Regeneration Solution was prepared by mixing 3 parts of Regeneration Stock 1 (8M Guanidine-HCl) with 1-part Regeneration Stock 2 (1M NaOH). Both the reference and active flow cells of the sensor chip were conditioned with 3×60 second injections of Regeneration Solution at a flow rate of 10 μl/min.
as §1

[11] = target: T3, TnMUC1 peptide 1 (partially …); experiment: SPR (Biacore T200): biotinylated TnMUC1 peptide 1 (96-1) captured on CAP chip, scFv as analyte
[12] = target: T4, MUC1 peptide (non-glycosylated), …; experiment: SPR (Biacore T200): biotinylated peptide captured on CAP chip, scFv as analyte
[13] = target: T2, STnMUC1 peptide, biotinylated; experiment: SPR (Biacore T200): biotinylated STnMUC1 peptide (35-1) captured on CAP chip, scFv as analyte; remark: listed apart in the source
Protocol: as §4, §1

[14] = target: T1, TnMUC1 peptide (fully glycosylated), …; experiment: SPR (Biacore T200): biotinylated TnMUC1 peptide batch 65-1 captured on CAP chip, scFv as analyte

Binder | Kd [1] [nM] | koff [1] [s⁻¹] | kon [1] [M⁻¹ s⁻¹] | Kd [2] [nM] | koff [2] [s⁻¹] | kon [2] [M⁻¹ s⁻¹] | Kd [3] [nM] | Kd [4] [nM] | koff [4] [s⁻¹] | kon [4] [M⁻¹ s⁻¹] | Kd [5] [nM] | koff [5] [s⁻¹] | kon [5] [M⁻¹ s⁻¹] | binding result [6] | Kd [7] [nM] | Kd [8] | koff [8] | kon [8] | fold lower affinity than the murine 5E5 scFv protein [10] [fold] | other results
humanised anti-TnMUC1 scFv protein 11P6 (89A), L0-H5 (scFv, Supernatant of construct 6D6 in the Octet assay; purified 11P6 elsewhere; also called 6D6) scFv: DIVMTQSPDSLAVSLGERATINCKSSQSLLNSGDQKNYLTWYQQKPGQPPKLLIYWASTRESGVPDRFSGSGSGTDFTLTISSLQAEDVAVYYCQNDYSYPLTFGQGTKLEIKGGGGSGGGGSGGGGSGGGGSQVQLVQSGAEVKKPGSSVKVSCKASGYTFTDHAIHWVRQAPGQGLEWIGHFSPGNTDIKYNDKFKGRATLTVDRSTSTAYMELSSLRSEDTAVYFCKTSTFFFDYWGQGTTVTVSSAAAHHHHHH | 48.6 | 0.00136 | 28000 | 199 | 0.000435 | 2200 | 26.7 | 26.7 | 0.00137 | 51500 | 60.3 | 0.00135 | 22500 | no binding (tested: 500 nM) | 199 | 25.7 nM and 27.6 nM | 0.00138 s⁻¹ and 0.00135 s⁻¹ | 53800 M⁻¹ s⁻¹ and 49100 M⁻¹ s⁻¹ | – | –
humanised anti-TnMUC1 scFv protein 9P1 (88A), VL-VH humanised control (scFv, Control scFv designed from a humanised antibody of WO2015/159076 (10D2 is said to come from Ab2, so 10D1 by implication from Ab1); Neat supernatant of construct 10D1 in the Octet assay; purified protein 9P1 in Biacore and flow cytometry; also called 10D1) scFv: DIVMTQSPDSLAVSLGERATINCKSSQSLLNSGDQKNYLTWYQQKPGQPPKLLIYWASTRESGVPDRFSGSGSGTDFTLTISSLQAEDVAVYYCQNDYSYPLTFGQGTKVEIKGGGGSGGGGSGGGGSGGGGSQVQLVQSGAEVKKTGSSVKVSCKASGYTFTDHAIHWVRQAPGQALEWMGHFSPGNTDIKYNDKFKGRVTLTVDRSMSTAYMELSSLRSEDTAMYYCKTSTFFFDYWGQGTMVTVSSAAAHHHHHH | – | – | – | – | – | – | 23 | 23 | 0.00156 | 67800 | – | – | – | – | – | 22.8 nM and 23.3 nM | 0.00157 s⁻¹ and 0.00153 s⁻¹ | 68800 M⁻¹ s⁻¹ and 65900 M⁻¹ s⁻¹ | – | binding result [9]: no binding (tested: neat supernatant)
humanised anti-TnMUC1 scFv protein 11P12 (94A), L1-H5 (scFv, Supernatant of construct 6D12 in the Octet assay; purified 11P12 elsewhere; also called 6D12) scFv: ELVMTQSPDSLAVSLGERATINCKSSQSLLNSGDQKNYLTWYQQKPGQPPKLLIYWASTRESGVPDRFSGSGSGTDFTLTISSLQAEDVAVYYCQNDYSYPLTFGQGTKLEIKGGGGSGGGGSGGGGSGGGGSQVQLVQSGAEVKKPGSSVKVSCKASGYTFTDHAIHWVRQAPGQGLEWIGHFSPGNTDIKYNDKFKGRATLTVDRSTSTAYMELSSLRSEDTAVYFCKTSTFFFDYWGQGTTVTVSSAAAHHHHHH | – | – | – | – | – | – | 54 | 54.4 | 0.00155 | 28400 | – | – | – | no binding (tested: 500 nM) | – | 53.6 nM and 55.2 nM | 0.00158 s⁻¹ and 0.00151 s⁻¹ | 29400 M⁻¹ s⁻¹ and 27300 M⁻¹ s⁻¹ | ~10 | –
humanised anti-TnMUC1 scFv protein 13P16 (97A), L2-H3 (scFv, Supernatant of construct 6D16 in the Octet assay; purified 13P16 elsewhere. scFv of CAR MB024; also called 6D16) scFv: DIVMTQSPDSLAVSLGERATINCKSSQSLLNSGDQKNYLTWYQQKPGQPPKLLIFWASTRESGVPDRFSGSGSGTDFTLTISSLQAEDVAVYYCQNDYSYPLTFGQGTKLEIKGGGGSGGGGSGGGGSGGGGSQVQLVQSGAEVKKPGSSVKVSCKASGYTFTDHAIHWVRQAPGQGLEWMGHFSPGNTDIKYNDKFKGRVTITADKSTSTAYMELSSLRSEDTAVYYCKTSTFFFDYWGQGTTVTVSSAAAHHHHHH | 195 | 0.00633 | 32600 | 445 | 0.00117 | 2630 | 174 | 174 | 0.00653 | 37800 | 231 | 0.00635 | 27500 | – | 445 | 166 nM and 181 nM | 0.00654 s⁻¹ and 0.00652 s⁻¹ | 39500 M⁻¹ s⁻¹ and 36100 M⁻¹ s⁻¹ | ~10 | Kd [11]: 231 nM; koff [11]: 0.00635 s⁻¹; kon [11]: 27500 M⁻¹ s⁻¹; binding result [12]: no binding; Kd [13]: 445 nM; koff [13]: 0.00117 s⁻¹; kon [13]: 2630 M⁻¹ s⁻¹; Kd [14]: 195 nM; koff [14]: 0.00633 s⁻¹; kon [14]: 32600 M⁻¹ s⁻¹
humanised anti-TnMUC1 scFv protein 13P18 (19A), L2-H5 (scFv, Supernatant of construct 6D18 in the Octet assay; purified 13P18 elsewhere. scFv of CAR MB025; also called 6D18) scFv: DIVMTQSPDSLAVSLGERATINCKSSQSLLNSGDQKNYLTWYQQKPGQPPKLLIFWASTRESGVPDRFSGSGSGTDFTLTISSLQAEDVAVYYCQNDYSYPLTFGQGTKLEIKGGGGSGGGGSGGGGSGGGGSQVQLVQSGAEVKKPGSSVKVSCKASGYTFTDHAIHWVRQAPGQGLEWIGHFSPGNTDIKYNDKFKGRATLTVDRSTSTAYMELSSLRSEDTAVYFCKTSTFFFDYWGQGTTVTVSSAAAHHHHHH | 40.7 | 0.00127 | – | 196 | 0.000423 | 2160 | 70.9 | 70.9 | 0.0013 | 18400 | 51.1 | 0.00131 | – | no binding (tested: 500 nM) | 196 | 67.6 nM and 74.2 nM | 0.00131 s⁻¹ and 0.00129 s⁻¹ | 19400 M⁻¹ s⁻¹ and 17400 M⁻¹ s⁻¹ | ~10 | –
humanised anti-TnMUC1 scFv protein 13P24 (77A), L3-H5 (scFv, Two purification lots (13P24, 28P24); also called 28P24; 6D24) scFv: ELVMTQSPDSLAVSLGERATINCKSSQSLLNSGDQKNYLTWYQQKPGQPPKLLIFWASTRESGVPDRFSGSGSGTDFTLTISSLQAEDVAVYYCQNDYSYPLTFGQGTKLEIKGGGGSGGGGSGGGGSGGGGSQVQLVQSGAEVKKPGSSVKVSCKASGYTFTDHAIHWVRQAPGQGLEWIGHFSPGNTDIKYNDKFKGRATLTVDRSTSTAYMELSSLRSEDTAVYFCKTSTFFFDYWGQGTTVTVSSAAAHHHHHH | – | – | – | – | – | – | 46.4 | 46.4 | 0.00133 | 28700 | – | – | – | no binding (tested: 500 nM) | – | 46.4 nM | 0.00133 s⁻¹ | 28700 M⁻¹ s⁻¹ | – | –
humanised anti-TnMUC1 scFv protein 16P4 (82A), L0-H3 (scFv, Supernatant of construct 6D4 in the Octet assay; purified 16P4 elsewhere. scFv of CAR MB021; also called 6D4) scFv: DIVMTQSPDSLAVSLGERATINCKSSQSLLNSGDQKNYLTWYQQKPGQPPKLLIYWASTRESGVPDRFSGSGSGTDFTLTISSLQAEDVAVYYCQNDYSYPLTFGQGTKLEIKGGGGSGGGGSGGGGSGGGGSQVQLVQSGAEVKKPGSSVKVSCKASGYTFTDHAIHWVRQAPGQGLEWMGHFSPGNTDIKYNDKFKGRVTITADKSTSTAYMELSSLRSEDTAVYYCKTSTFFFDYWGQGTTVTVSSAAAHHHHHH | 208 | 0.00698 | 33900 | 536 | 0.00122 | 2290 | 196 | 196 | 0.00687 | 35100 | 250 | 0.00708 | 28500 | no binding (tested: 500 nM) | 536 | 195 nM and 197 nM | 0.00694 s⁻¹ and 0.0068 s⁻¹ | 35600 M⁻¹ s⁻¹ and 34500 M⁻¹ s⁻¹ | ~10 | –
